Data from patent publication US20210371505A1.

How the values were obtained:
Experiment in all cases: cell-based or functional assay
[1] = biological target: Hemagglutinin of influenza virus A/Aichi/02/1968-PR8-X31 (H3N2) (Influenza A virus A/Aichi/02/1968-PR8-X31 (H3N2)) (UniProt P03437)
[2] = biological target: Hemagglutinin of influenza virus A/Philippines/01/1982 (H3N2) (Influenza A virus A/Philippines/01/1982 (H3N2))
[3] = biological target: Hemagglutinin of influenza virus A/Shanghai/01/2013-PR8 (H7N9) (Influenza A virus A/Shanghai/01/2013-PR8 (H7N9))

B1: H1H14612N2 (antibody, V domains shown)
VH: EVQLVESGGGLVKPGGSLRLSCAASGFSFSGFSMNWVRQAPGKGLEWVSSISTSGNYMYYADSVKGRFTISRDNAKKSFSLQMNSLRAEDSAIYYCARGGGYNWNLFDYWGQGSLVTVSS
VL: EIVLTQSPGTLSLSPGERATLSCRASQSLNSNYLAWYQQKPGQAPRLLIYGASSRATGIPDRFSGSGSGADFTLTISRLESEDFAVYYCQQYGNSPLTFGGGTKVEIK
For B1, the EC50, complement-dependent cytotoxicity of virus-infected MDCK cells [1] was 126 nM, the IC50 of neutralization, cell viability microneutralization assay on MDCK cells [1] was 5.7 nM and the maximum lysis, complement-dependent cytotoxicity of virus-infected MDCK cells [1] was 86.3%. For the same binder, the IC50 of neutralization, cell viability microneutralization assay on MDCK cells [2] was 37.6 nM and the IC50 of neutralization, cell viability microneutralization assay on MDCK cells [3] was > 6670 nM.
